# According to US20220402995A1 (TOSOH, published 2022):
# Where a chain is given by its changes, count along the chain named.
# B1: AVR4d (Tyr342Cys, Gly390Ser, Ser476Arg, Asn487Asp) (receptor)
# chain: MGSAGESVQITLPKNEVQLNAYVLQEPPKGETCTYDWQLITHPRDYSGEMEGKHSQILKLSKLTPGLYEFKVIVEGQNAHSEGYVNVTVKPEPRKNRPPIAIVSPQFQEISLPTTSTVIDGSQSTDDDKIVQYHWEELKGPLREEKISEDTAILKLSKLVPGNYTFRLTVVDSDGATDSTTANLTVNKAVDHHHHHH
# B2: AVR4a (Ile319Phe, Tyr342Cys, Gly390Ser, Ser476Arg) (receptor)
# chain: B1 chain with I10F, D178N
# B3: AVR5b (Ile319Phe, Lys323Glu, Tyr342Cys, Gly390Ser, Ser476Arg) (receptor)
# chain: B1 chain with I10F, K14E, D178N
# B4: AVR3 (AAV-binding protein No. 75; Tyr342Cys, Gly390Ser, Ser476Arg) (receptor)
# chain: B1 chain with D178N
# B5: AVR5e (Tyr342Cys, Gly390Ser, Lys399Glu, Ser476Arg, Asn487Asp) (receptor)
# chain: B1 chain with K90E
# B6: AAV-binding protein No. 9 (Pro352Leu) (receptor)
# chain: B1 chain with C33Y, P43L, S81G, R167S, D178N
# B7: AAV-binding protein No. 49 (Tyr331Cys, Thr343Met, Tyr355Cys) (receptor)
# chain: B1 chain with Y22C, C33Y, T34M, Y46C, S81G, R167S, D178N
# B8: AAV-binding protein No. 53 (Asp354Gly, Leu369Gln, Lys455Arg) (receptor)
# chain: B1 chain with C33Y, D45G, L60Q, S81G, K146R, R167S, D178N
# B9: AVR2 (AAV-binding protein No. 32, Tyr342Cys-Gly390Ser substitution product) (receptor)
# chain: B1 chain with R167S, D178N
# B10: AAV-binding protein No. 47 (Asn329Tyr, Tyr377Cys, Arg406Ser) (receptor)
# chain: B1 chain with N20Y, C33Y, Y68C, S81G, R97S, R167S, D178N
# B11: AAV-binding protein No. 36 (Tyr355His, Asn387Ser) (receptor)
# chain: B1 chain with C33Y, Y46H, N78S, S81G, R167S, D178N
# B12: AAV-binding protein No. 16 (Leu369Gln) (receptor)
# chain: B1 chain with C33Y, L60Q, S81G, R167S, D178N
# B13: AAV-binding protein No. 29 (Leu333Val, Tyr342Cys) (receptor)
# chain: B1 chain with L24V, S81G, R167S, D178N
# B14: AAV-binding protein No. 43 (Leu321Pro, Tyr342Asn, Ala461Ser) (receptor)
# chain: B1 chain with L12P, C33N, S81G, A152S, R167S, D178N
# B15: AAV-binding protein No. 45 (Asn329Asp, Tyr342His, Tyr355Cys) (receptor)
# chain: B1 chain with N20D, C33H, Y46C, S81G, R167S, D178N
# B16: AAV-binding protein No. 30 (Glu340Gly, Tyr342Cys) (receptor)
# chain: B1 chain with E31G, S81G, R167S, D178N
# B17: AVR8g (Val317Asp, Tyr342Cys, Lys362Glu, Lys371Asn, Gly390Ser, Lys399Glu, Ser476Arg, Asn487Asp) (receptor)
# chain: B1 chain with V8D, K53E, K62N, K90E
# B18: AVR8a (Val317Asp, Asn324Asp, Tyr342Cys, Lys362Glu, Gly390Ser, Lys399Glu, Ser476Arg, Asn487Asp) (receptor)
# chain: B1 chain with V8D, N15D, K53E, K90E
# B19: AVR7a (AAV-binding protein No. 93; AVR5e + Asn324Asp, Lys362Glu) (receptor)
# chain: B1 chain with N15D, K53E, K90E
# B20: AVR7b (AAV-binding protein No. 91; AVR5e + Val317Asp, Lys371Asn) (receptor)
# chain: B1 chain with V8D, K62N, K90E
# B21: AAV-binding protein No. 99 (AVR5e + Gln318Pro, Phe379Tyr, Glu401Val) (receptor)
# chain: B1 chain with Q9P, F70Y, K90E, E92V
# B22: AAV-binding protein No. 101 (AVR5e + Val326Glu, Asn329His, Glu378Val) (receptor)
# chain: B1 chain with V17E, N20H, E69V, K90E
# B23: AAV-binding protein No. 102 (AVR5e + Leu328Pro, Lys362Asn, Thr397Ser, Arg406His) (receptor)
# chain: B1 chain with L19P, K53N, T88S, K90E, R97H
# B24: AAV-binding protein No. 98 (AVR5e + Leu376Pro, Asn492Asp) (receptor)
# chain: B1 chain with L67P, K90E, N183D
# B25: AAV-binding protein No. 100 (AVR5e + Asn324Asp, Lys362Glu, Val499Glu) (receptor)
# chain: B1 chain with N15D, K53E, K90E, V190E
# B26: AVR3HC (protein having an immobilization tag at the C-terminus of AVR3) (receptor)
# chain: MGSAGESVQITLPKNEVQLNAYVLQEPPKGETCTYDWQLITHPRDYSGEMEGKHSQILKLSKLTPGLYEFKVIVEGQNAHSEGYVNVTVKPEPRKNRPPIAIVSPQFQEISLPTTSTVIDGSQSTDDDKIVQYHWEELKGPLREEKISEDTAILKLSKLVPGNYTFRLTVVDSDGATNSTTANLTVNKAVDHHHHHHCRNDTCG
# notes: Immobilised on gel; also called AVR3HC-immobilized gel
# B27: AVR8gHC (protein having an immobilization tag at the C-terminus of AVR8g) (receptor)
# chain: B26 chain with V8D, K53E, K62N, K90E, N178D
# notes: Immobilised on gel; also called AVR8gHC-immobilized gel
# Target: T1, VLP2 (virus-like particles of AAV2) (AAV2, UniProt P03135 1-735; P03135 1-598; P03135 1-533)
# T1 construct: Empty AAV2 capsid; background says about 60 protein molecules, VP1:VP2:VP3 = 1:1:10; Immobilised on the ELISA plate
# Test: ELISA on VLP2; A450 after pH 3.0 66.1°C 15 min / 25°C
# T1 sequence (P03135 whole entry, chain 1 of 3): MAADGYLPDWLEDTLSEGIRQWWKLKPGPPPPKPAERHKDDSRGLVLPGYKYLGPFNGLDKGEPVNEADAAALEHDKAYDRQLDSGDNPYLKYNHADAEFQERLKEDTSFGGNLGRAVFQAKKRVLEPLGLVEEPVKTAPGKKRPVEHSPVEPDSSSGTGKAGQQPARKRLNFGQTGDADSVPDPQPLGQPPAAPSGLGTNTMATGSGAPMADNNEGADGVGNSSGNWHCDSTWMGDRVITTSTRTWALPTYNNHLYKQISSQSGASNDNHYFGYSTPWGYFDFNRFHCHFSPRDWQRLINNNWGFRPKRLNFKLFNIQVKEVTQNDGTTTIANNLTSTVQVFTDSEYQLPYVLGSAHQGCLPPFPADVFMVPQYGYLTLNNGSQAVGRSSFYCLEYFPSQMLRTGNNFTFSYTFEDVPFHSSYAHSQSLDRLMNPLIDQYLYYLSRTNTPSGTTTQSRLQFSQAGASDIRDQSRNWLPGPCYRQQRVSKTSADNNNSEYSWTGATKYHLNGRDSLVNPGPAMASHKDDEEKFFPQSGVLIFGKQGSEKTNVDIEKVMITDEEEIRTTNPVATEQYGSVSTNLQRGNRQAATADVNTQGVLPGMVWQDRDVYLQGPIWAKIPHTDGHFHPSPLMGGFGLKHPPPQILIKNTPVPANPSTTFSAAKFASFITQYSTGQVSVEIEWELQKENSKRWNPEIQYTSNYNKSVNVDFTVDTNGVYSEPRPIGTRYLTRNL
# T1 sequence (P03135 139-735, tags left off, chain 2 of 3): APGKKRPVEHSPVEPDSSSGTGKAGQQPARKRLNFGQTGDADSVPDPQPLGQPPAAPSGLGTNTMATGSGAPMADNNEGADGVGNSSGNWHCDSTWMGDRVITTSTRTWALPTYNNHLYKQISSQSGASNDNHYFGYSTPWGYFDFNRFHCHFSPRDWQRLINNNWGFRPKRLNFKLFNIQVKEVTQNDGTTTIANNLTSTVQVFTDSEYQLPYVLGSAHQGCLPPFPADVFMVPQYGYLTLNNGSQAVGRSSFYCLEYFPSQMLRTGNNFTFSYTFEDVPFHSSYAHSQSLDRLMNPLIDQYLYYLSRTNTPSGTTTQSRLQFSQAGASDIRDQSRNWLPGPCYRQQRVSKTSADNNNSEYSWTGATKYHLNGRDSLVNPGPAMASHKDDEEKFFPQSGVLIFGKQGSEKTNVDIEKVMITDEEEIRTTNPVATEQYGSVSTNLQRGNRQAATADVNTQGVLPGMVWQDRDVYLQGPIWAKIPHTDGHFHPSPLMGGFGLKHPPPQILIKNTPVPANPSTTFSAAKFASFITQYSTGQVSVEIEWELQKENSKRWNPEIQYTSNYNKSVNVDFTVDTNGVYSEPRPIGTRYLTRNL
# T1 sequence (P03135 203-735, chain 3 of 3): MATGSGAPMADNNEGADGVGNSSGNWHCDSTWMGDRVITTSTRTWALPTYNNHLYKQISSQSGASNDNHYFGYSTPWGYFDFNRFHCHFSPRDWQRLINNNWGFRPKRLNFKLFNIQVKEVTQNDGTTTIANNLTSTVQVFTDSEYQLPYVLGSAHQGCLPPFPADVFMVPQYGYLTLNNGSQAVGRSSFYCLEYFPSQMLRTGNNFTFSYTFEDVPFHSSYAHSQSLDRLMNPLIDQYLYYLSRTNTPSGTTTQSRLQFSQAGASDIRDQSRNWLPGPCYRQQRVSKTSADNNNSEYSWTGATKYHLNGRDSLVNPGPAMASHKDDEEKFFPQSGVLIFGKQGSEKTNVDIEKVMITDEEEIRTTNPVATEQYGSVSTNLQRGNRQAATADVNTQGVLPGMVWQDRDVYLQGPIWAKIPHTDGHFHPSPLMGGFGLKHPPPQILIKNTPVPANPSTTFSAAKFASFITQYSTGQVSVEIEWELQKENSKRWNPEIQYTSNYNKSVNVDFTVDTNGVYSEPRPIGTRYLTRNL
row,Binder,Residual activity after heat treatment [%]
1,B1,18
2,B2,8
3,B3,23
4,B4,2
5,B5,43

# Target: T1, VLP2 (virus-like particles of AAV2)
# Test: ELISA on VLP2; A450 after pH 2.5 30°C 24 h / untreated
row,Binder,Residual activity [%]
1,B6,5.6
2,B7,16.6
3,B8,13.2
4,B9,64.7
5,B10,34.8
6,B11,8.9
7,B12,10
8,B13,40.2
9,B14,28.3
10,B15,47.6
11,B16,56.1

# Target: T1, VLP2 (virus-like particles of AAV2)
# Test: ELISA on VLP2; A450 after pH 3.0 80.8°C 15 min / 25°C
row,Binder,Residual activity after heat treatment [%]
1,B17,67
2,B18,66
3,B19,57

# Target: T1, VLP2 (virus-like particles of AAV2)
# Test: ELISA on VLP2; binding after pH 10.0 41.2°C 15 min / untreated
row,Binder,Residual activity [%]
1,B17,23.1

# Target: T1, VLP2 (virus-like particles of AAV2)
# Test: ELISA on VLP2; binding after pH 3.0 61.0°C 15 min / untreated
row,Binder,Residual activity [%]
1,B20,55.7
2,B19,50.7
3,B21,54
4,B22,48.5
5,B23,41.1
6,B24,47.6
7,B25,50.1
8,B5,25.5

# Target: T1, VLP2 (virus-like particles of AAV2)
# Test: ELISA on VLP2; binding after pH 3.0 51.1°C 15 min / untreated;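 note: binding of the heat-treated AAV-binding protein to VLP2, expressed as a percentage of the binding of the same protein without heating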
row,Binder,Residual activity [%]
1,B9,25.5
2,B4,96.3

# Target: T1, VLP2 (virus-like particles of AAV2)
# Test: ELISA on VLP2; A450 after pH 3.0 60.1°C 15 min / 25°C
row,Binder,Residual activity after heat treatment [%]
1,B1,35
2,B2,16
3,B3,43
4,B4,3
5,B5,56

# Target: T1, VLP2 (virus-like particles of AAV2)
# Test: ELISA on VLP2; A450 after pH 3.0 89.8°C 15 min / 25°C
row,Binder,Residual activity after heat treatment [%]
1,B17,55
2,B18,52
3,B19,54

# Target: T1, VLP2 (virus-like particles of AAV2)
# Test: ELISA on VLP2; binding after 43°C 15 min / untreated
row,Binder,Residual activity [%]
1,B6,71.9
2,B7,97.7
3,B8,90.5
4,B9,97.6
5,B10,92.7
6,B11,86.6
7,B12,92.8
8,B13,91.8
9,B14,84.1
10,B15,97.2
11,B16,91.3

# Target: T1, VLP2 (virus-like particles of AAV2)
# Test: ELISA on VLP2; A450 after pH 2.5 30°C 2 h / untreated
row,Binder,Residual activity [%]
1,B6,17.6
2,B7,52.8
3,B8,18.2
4,B9,70.7
5,B10,43.6
6,B11,16.1
7,B12,17.3
8,B13,52.2
9,B14,41.4
10,B15,64.4
11,B16,70.5

# Target: T1, VLP2 (virus-like particles of AAV2)
# Test: ELISA on VLP2; A450 after 50.3°C 15 min / untreated
row,Binder,Residual activity [%]
1,B6,49
2,B7,77.3
3,B8,29.8
4,B9,76
5,B10,64.5
6,B11,74.5
7,B12,32
8,B13,66.7
9,B14,55.6
10,B15,66
11,B16,65.4

# Target: T2, AAV2-EGFP (AAV vector of serotype 2 carrying an EGFP gene) (AAV2, UniProt P03135 1-735; P03135 1-598; P03135 1-533)
# T2 construct: Genome-containing AAV2 particle; amounts counted as vector genomes (VG) by qPCR
# Test: mini column of immobilised protein loaded to breakthrough; AAV2-EGFP recovered by elution at pH 3.0, qPCR
# T2 sequence (P03135 whole entry, chain 1 of 3, the tested form may be a part): as the sequence (P03135 whole entry, chain 1 of 3) above
# T2 sequence (P03135 139-735, tags left off, chain 2 of 3): as the sequence (P03135 139-735, tags left off, chain 2 of 3) above
# T2 sequence (P03135 203-735, chain 3 of 3): as the sequence (P03135 203-735, chain 3 of 3) above
row,Binder,amount of AAV2-EGFP bound per 1 mL of protein-immobilized gel
1,B26,2.8e+12 VG/mL (gel)
2,B27,1.2e+13 VG/mL (gel)

# Target: T1, VLP2 (virus-like particles of AAV2)
# Test: ELISA on VLP2; A450 after 66.1°C 15 min / untreated
row,Binder,Residual activity [%]
1,B6,46.5
2,B7,57.3
3,B8,23.5
4,B9,70.5
5,B10,58.7
6,B11,51
7,B12,20.3
8,B13,54.5
9,B14,56.3
10,B15,46.7
11,B16,52.4

# Target: T1, VLP2 (virus-like particles of AAV2)
# Test: ELISA on VLP2; A450 after pH 3.0 51.5°C 15 min / 25°C
row,Binder,Residual activity after heat treatment [%]
1,B1,66
2,B2,57
3,B3,87
4,B4,21
5,B5,77
